Measured values reported in patent publication US20080213273A1.

How the values were obtained:
[1] = target: human CD20 (on the human B-cell lymphoma cell line WIL2-S and other CD20+ human B-cell lines) (human) (UniProt P11836); experiment: cell-based or functional assay
[2] = target: monkey CD20 (on monkey peripheral blood cells) (monkey) (UniProt M4ZHZ6); experiment: flow cytometry on monkey peripheral blood, N = 3, mean (SD 3.3); control column 0.2 (0.1)
Sequence of UniProt M4ZHZ6 (M4ZHZ6 entry or part of it limits assumed): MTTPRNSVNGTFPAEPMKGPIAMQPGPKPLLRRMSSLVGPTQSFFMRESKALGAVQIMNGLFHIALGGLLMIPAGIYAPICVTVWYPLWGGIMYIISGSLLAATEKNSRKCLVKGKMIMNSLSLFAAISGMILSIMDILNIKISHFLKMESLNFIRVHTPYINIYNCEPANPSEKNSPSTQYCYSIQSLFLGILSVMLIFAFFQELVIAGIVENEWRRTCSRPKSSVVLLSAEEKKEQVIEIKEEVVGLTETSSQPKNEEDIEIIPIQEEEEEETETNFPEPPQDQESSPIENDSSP

Sequence of UniProt P11836 (P11836 whole entry): as the sequence (M4ZHZ6 entry or part of it limits assumed) above, with P25S, L31F, A51T, V157A, R217K, S226N, V227I, V239T counted along it

**Q.** Which apoptosis of Ramos B-cells, annexin V/propidium iodide flow cytometry [1] does the source give for rituximab (antibody) here?
**A.** 60 % cell lysis

**Q.** And the percent positive staining cells [2]?
**A.** 21.5%
